Experimental data as given in patent US20220402983A1 (Janssen / Centocor, published 2022).
*1 amine or outer side, *2 acyl side, *3 side chain or, on linkers, in order; H or OH if unused. Bridges are numbered along the chain shown (N, C = ends). Primed or numbered codes have the meaning given here. Where no end group is shown, it is not given here. [ ]: non-standard residue; d: D form. The star is where a group is joined. bMe2Nal(2S,3R) = beta-methyl-2-naphthylalanine (2S,3R), C[C@H](c1ccc2ccccc2c1)[C@H](N[*:1])C(=O)[*:2]; 4AcDPhe = D-(4-acyl)phenylalanine, CC(=O)c1ccc(C[C@@H](N[*:1])C(=O)[*:2])cc1; Phe(4-OMe)″ = 4-methoxyphenylalanine, COc1ccc(C[C@H](N[*:1])C(=O)[*:2])cc1; Trp(7-Ph) = N[C@@H](Cc1c[nH]c2c(-c3ccccc3)cccc12)C(=O)O; Trp(7-Me) = Cc1cccc2c(C[C@H](N)C(=O)O)c[nH]c12; Phe(3R-Me) = C[C@H](c1ccccc1)[C@H](N)C(=O)O; dPhe(4-NH2) = Nc1ccc(C[C@@H](N)C(=O)O)cc1; Phe(4-NH2) = Nc1ccc(C[C@H](N)C(=O)O)cc1; Ac6c(4,4-F2) = NC1(C(=O)O)CCC(F)(F)CC1; 2Nal = N[C@@H](Cc1ccc2ccccc2c1)C(=O)O; AEF = NCCOc1ccc(C[C@H](N)C(=O)O)cc1; αMeF = C[C@](N)(Cc1ccccc1)C(=O)O; Pen = CC(C)(S)[C@H](N)C(=O)O; αMeK = C[C@](N)(CCCCN)C(=O)O; αMeC = C[C@](N)(CS)C(=O)O; Thp = NC1(C(=O)O)CCOCC1; Abu = CC[C@H](N)C(=O)O; Ac3c = NC1(C(=O)O)CC1; BH = not defined here; Boc = CC(C)(C)OC(=O)*; Propionyl = CCC(=O)*

T1: human IL-23R (interleukin-23 receptor) (human, UniProt Q5VWK5 24-629)
T1 sequence (looked up): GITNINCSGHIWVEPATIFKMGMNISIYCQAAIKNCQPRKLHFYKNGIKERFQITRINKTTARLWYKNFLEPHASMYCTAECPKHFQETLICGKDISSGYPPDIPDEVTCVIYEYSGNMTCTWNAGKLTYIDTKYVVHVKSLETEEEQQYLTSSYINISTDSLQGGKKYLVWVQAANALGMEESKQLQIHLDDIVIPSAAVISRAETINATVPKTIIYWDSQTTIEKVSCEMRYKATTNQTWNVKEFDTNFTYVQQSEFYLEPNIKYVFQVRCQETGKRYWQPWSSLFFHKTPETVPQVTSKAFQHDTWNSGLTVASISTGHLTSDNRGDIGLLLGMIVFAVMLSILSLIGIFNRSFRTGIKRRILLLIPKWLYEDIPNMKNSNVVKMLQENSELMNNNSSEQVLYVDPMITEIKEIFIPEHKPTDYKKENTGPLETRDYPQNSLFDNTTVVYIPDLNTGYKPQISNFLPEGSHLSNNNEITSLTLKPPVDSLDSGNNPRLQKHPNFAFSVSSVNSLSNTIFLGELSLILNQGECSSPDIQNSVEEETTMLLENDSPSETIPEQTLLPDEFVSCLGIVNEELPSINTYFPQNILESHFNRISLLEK

B1: Compound No. 312 (peptide)
peptide: XNTXKXXXKKNF
modifications: MeCO-Pen-N-T-7MeTrp-K(Ac)-Pen-AEF-2Nal-aMeK-K(Ac)-N-bMePhe(S,R)-CONH2; cyclized: Pen-Pen disulfide bond
B2: Compound No. 309 (peptide)
peptide: Ac-[dR][Pen]NT[Trp(7-Me)]K(Ac)[Pen][AEF][2Nal][Ac3c]ENHX-NH2
modifications: disulfide 2-7; not fully specified (residue 14); printed as MeCO-F[(D)Arg]-Pen-N -T-7MeW-K(Ac)-Pen-AEF-2Nal-Acpx-E-N-H-paf-CONH2
B3: Compound No. 310 (peptide)
peptide: Ac-[dR]CNT[Trp(7-Me)]K(Ac)[αMeC][AEF][2Nal][Ac3c]EN[Thp]-NH2
modifications: disulfide 2-7
SMILES: CC(=O)NCCCC[C@@H]1NC(=O)[C@H](Cc2c[nH]c3c(C)cccc23)NC(=O)[C@H]([C@@H](C)O)NC(=O)[C@H](CC(N)=O)NC(=O)[C@@H](NC(=O)[C@@H](CCCNC(=N)N)NC(C)=O)CSSC[C@@](C)(C(=O)N[C@@H](Cc2ccc(OCCN)cc2)C(=O)N[C@@H](Cc2ccc3ccccc3c2)C(=O)NC2(C(=O)N[C@@H](CCC(=O)O)C(=O)N[C@@H](CC(N)=O)C(=O)NC3(C(N)=O)CCOCC3)CC2)NC1=O
B4: Compound No. 308 (peptide)
peptide: Ac-[dR][Pen]NT[Trp(7-Me)]K(Ac)[Pen][AEF](Ac)[2Nal][Ac3c]EN[Thp]-NH2
modifications: disulfide 2-7
SMILES: CC(=O)NCCCC[C@@H]1NC(=O)[C@H](Cc2c[nH]c3c(C)cccc23)NC(=O)[C@H]([C@@H](C)O)NC(=O)[C@H](CC(N)=O)NC(=O)[C@@H](NC(=O)[C@@H](CCCNC(=N)N)NC(C)=O)C(C)(C)SSC(C)(C)[C@@H](C(=O)N[C@@H](Cc2ccc(OCCNC(C)=O)cc2)C(=O)N[C@@H](Cc2ccc3ccccc3c2)C(=O)NC2(C(=O)N[C@@H](CCC(=O)O)C(=O)N[C@@H](CC(N)=O)C(=O)NC3(C(N)=O)CCOCC3)CC2)NC1=O
B5: Compound No. 316 (peptide)
peptide: Ac-[dR][Pen]NT[Trp(7-Me)]K(Ac)[Pen][AEF][2Nal][Ac3c]ENH[4AcDPhe]-NH2
modifications: disulfide 2-7
SMILES: CC(=O)NCCCC[C@@H]1NC(=O)[C@H](Cc2c[nH]c3c(C)cccc23)NC(=O)[C@H]([C@@H](C)O)NC(=O)[C@H](CC(N)=O)NC(=O)[C@@H](NC(=O)[C@@H](CCCNC(=N)N)NC(C)=O)C(C)(C)SSC(C)(C)[C@@H](C(=O)N[C@@H](Cc2ccc(OCCN)cc2)C(=O)N[C@@H](Cc2ccc3ccccc3c2)C(=O)NC2(C(=O)N[C@@H](CCC(=O)O)C(=O)N[C@@H](CC(N)=O)C(=O)N[C@@H](Cc3c[nH]cn3)C(=O)N[C@H](Cc3ccc(C(C)=O)cc3)C(N)=O)CC2)NC1=O
B6: Compound No. 306 (peptide)
peptide: Ac-[dR][Pen]NT[Trp(7-Me)][Phe(4-NH2)](Ac)[Pen][AEF][2Nal][Ac3c]EN[Thp]-NH2
modifications: disulfide 2-7
SMILES: CC(=O)Nc1ccc(C[C@@H]2NC(=O)[C@H](Cc3c[nH]c4c(C)cccc34)NC(=O)[C@H]([C@@H](C)O)NC(=O)[C@H](CC(N)=O)NC(=O)[C@@H](NC(=O)[C@@H](CCCNC(=N)N)NC(C)=O)C(C)(C)SSC(C)(C)[C@@H](C(=O)N[C@@H](Cc3ccc(OCCN)cc3)C(=O)N[C@@H](Cc3ccc4ccccc4c3)C(=O)NC3(C(=O)N[C@@H](CCC(=O)O)C(=O)N[C@@H](CC(N)=O)C(=O)NC4(C(N)=O)CCOCC4)CC3)NC2=O)cc1
B7: Compound No. 12 (peptide)
peptide: RXQTWQCFXXENN
modifications: not fully specified; Ac-[(D)Arg]-[Abu]-Q-T-W-Q-[Cys]-Phe[4-(2-aminoethoxy)]-[2-Nal]-[THP]-E-N-N-ac; cyclized: Abu-Cys thioether bond
B8: Compound No. 305 (peptide)
peptide: H-[dR][Pen]NT[Trp(7-Me)]K(Ac)[Pen][AEF](Boc)[2Nal][Thp]EN[αMeF]-NH2
modifications: disulfide 2-7
SMILES: CC(=O)NCCCC[C@@H]1NC(=O)[C@H](Cc2c[nH]c3c(C)cccc23)NC(=O)[C@H]([C@@H](C)O)NC(=O)[C@H](CC(N)=O)NC(=O)[C@@H](NC(=O)[C@H](N)CCCNC(=N)N)C(C)(C)SSC(C)(C)[C@@H](C(=O)N[C@@H](Cc2ccc(OCCNC(=O)OC(C)(C)C)cc2)C(=O)N[C@@H](Cc2ccc3ccccc3c2)C(=O)NC2(C(=O)N[C@@H](CCC(=O)O)C(=O)N[C@@H](CC(N)=O)C(=O)N[C@@](C)(Cc3ccccc3)C(N)=O)CCOCC2)NC1=O
B9: Compound No. 313 (peptide)
peptide: Ac-[dR][Pen]NT[Trp(7-Me)]K(Ac)[Pen][AEF][2Nal][Thp]EN[Phe(3R-Me)]-NH2
modifications: disulfide 2-7
SMILES: CC(=O)NCCCC[C@@H]1NC(=O)[C@H](Cc2c[nH]c3c(C)cccc23)NC(=O)[C@H]([C@@H](C)O)NC(=O)[C@H](CC(N)=O)NC(=O)[C@@H](NC(=O)[C@@H](CCCNC(=N)N)NC(C)=O)C(C)(C)SSC(C)(C)[C@@H](C(=O)N[C@@H](Cc2ccc(OCCN)cc2)C(=O)N[C@@H](Cc2ccc3ccccc3c2)C(=O)NC2(C(=O)N[C@@H](CCC(=O)O)C(=O)N[C@@H](CC(N)=O)C(=O)N[C@H](C(N)=O)[C@H](C)c3ccccc3)CCOCC2)NC1=O
B10: Compound No. 317 (peptide)
peptide: XNTXKXXXXENX
modifications: MeCO-Pen-N-T-7MeW-K(Ac)-Pen-AEF-2Nal-Acpx-E-N-THP---CONH2; cyclized: Pen-Pen disulfide bond
B11: Compound No. 303 (peptide)
peptide: Ac-[dR][Pen]NT[Trp(7-Me)]K(Ac)[Pen][AEF][2Nal][Ac6c(4,4-F2)]EN[Thp]-NH2
modifications: disulfide 2-7
SMILES: CC(=O)NCCCC[C@@H]1NC(=O)[C@H](Cc2c[nH]c3c(C)cccc23)NC(=O)[C@H]([C@@H](C)O)NC(=O)[C@H](CC(N)=O)NC(=O)[C@@H](NC(=O)[C@@H](CCCNC(=N)N)NC(C)=O)C(C)(C)SSC(C)(C)[C@@H](C(=O)N[C@@H](Cc2ccc(OCCN)cc2)C(=O)N[C@@H](Cc2ccc3ccccc3c2)C(=O)NC2(C(=O)N[C@@H](CCC(=O)O)C(=O)N[C@@H](CC(N)=O)C(=O)NC3(C(N)=O)CCOCC3)CCC(F)(F)CC2)NC1=O
B12: Compound No. 315 (peptide)
peptide: Ac-[dR][Pen]NT[Trp(7-Me)]K(Ac)[Pen][AEF][2Nal][Ac3c]ENH[dPhe(4-NH2)]-NH2
modifications: disulfide 2-7
SMILES: CC(=O)NCCCC[C@@H]1NC(=O)[C@H](Cc2c[nH]c3c(C)cccc23)NC(=O)[C@H]([C@@H](C)O)NC(=O)[C@H](CC(N)=O)NC(=O)[C@@H](NC(=O)[C@@H](CCCNC(=N)N)NC(C)=O)C(C)(C)SSC(C)(C)[C@@H](C(=O)N[C@@H](Cc2ccc(OCCN)cc2)C(=O)N[C@@H](Cc2ccc3ccccc3c2)C(=O)NC2(C(=O)N[C@@H](CCC(=O)O)C(=O)N[C@@H](CC(N)=O)C(=O)N[C@@H](Cc3c[nH]cn3)C(=O)N[C@H](Cc3ccc(N)cc3)C(N)=O)CC2)NC1=O
B13: Compound No. 307 (peptide)
peptide: Propionyl-[dR][Pen]QTWQ[Pen][AEF][bMe2Nal(2S,3R)][Thp]EN[Thp]-NH2
modifications: disulfide 2-7
SMILES: CCC(=O)N[C@H](CCCNC(=N)N)C(=O)N[C@@H]1C(=O)N[C@@H](CCC(N)=O)C(=O)N[C@@H]([C@@H](C)O)C(=O)N[C@@H](Cc2c[nH]c3ccccc23)C(=O)N[C@@H](CCC(N)=O)C(=O)N[C@H](C(=O)N[C@@H](Cc2ccc(OCCN)cc2)C(=O)N[C@H](C(=O)NC2(C(=O)N[C@@H](CCC(=O)O)C(=O)N[C@@H](CC(N)=O)C(=O)NC3(C(N)=O)CCOCC3)CCOCC2)[C@H](C)c2ccc3ccccc3c2)C(C)(C)SSC1(C)C

target: T1, human IL-23R (interleukin-23 receptor); test: cell-based or functional assay

Row | PBMC pSTAT3 IC50 (nM) | pStat3 HTRF (nM), IC50, DB cells IL23R pSTAT3 cell assay [nM] | Binder
1 | 3.1 | – | [dR]CQTWQ[Pen][AEF][2Nal][Thp]EN[Thp]-NH2 (disulfide 2-7; not fully specified (N-terminus)) [Compound No. 20]
2 | 90 | – | B1
3 | 8 | – | B2
4 | 9.9 | – | B3
5 | 290 | – | Ac-[Pen]NT[Trp(7-Me)]K(Ac)[Pen][4PipPhe][2Nal][αMeK]K(Ac)N[αMeF]-NH2 (disulfide 1-6) [Compound No. 311]
6 | 8 | – | B4
7 | 2.1 | – | B5
8 | 9.6 | – | B6
9 | 20 | – | B7
10 | 17 | – | B8
11 | 22 | – | [dR][Abu]QTWQC[Phe(4-OMe)″][2Nal][Thp]EN[Thp]-NH2 (thioether 2-7) [Compound No. 22]
12 | 21 | – | B9
13 | 21 | – | [dR][Abu]QTWQC[Phe(4-OMe)″][2Nal][Thp]EN[Thp]-NH2 (thioether 2-7; not fully specified (N-terminus)) [Compound No. 21]
14 | 75 | – | Ac-[dR][Pen]NT[Trp(7-Me)]K(Ac)[Pen][AEF](BH)[2Nal][Thp]EN[αMeF]-NH2 (disulfide 2-7; reading uncertain) [Compound No. 314]
15 | 13 | – | B10
16 | 3.4 | – | Ac-[dR][Abu]QTWQC[AEF][2Nal][Thp]ENF-NH2 (thioether 2-7) [Compound No. 17]
17 | 1.3 | – | B11
18 | 2 | – | B12
19 | 52 | – | B13
20 | – | 13.9 | Ac-[dR][Abu]QT[Trp(7-Ph)]K(Ac)C[AEF][2Nal][αMeK]K(Ac)N[αMeF]-NH2 (thioether 2-7) [Compound No. 11]
